Reference: paper PMC4096160 (Nature structural & molecular biology, 2013)

Columns and labels:
[1] = biological target: hSTAU1^55(R)Δ(SSM-‘RBD’5)-FLAG (human); experiment: co-IP
hSTAU1^55-HA3 (human) = hSTAU1^55-HA3 (human) (UniProt O95793); experiment: co-IP
SEC = biological target: the molecule itself; experiment: SEC
AUC = biological target: the molecule itself; experiment: AUC

hSTAU1^55-HA3 (human), sequence (O95793 82-577): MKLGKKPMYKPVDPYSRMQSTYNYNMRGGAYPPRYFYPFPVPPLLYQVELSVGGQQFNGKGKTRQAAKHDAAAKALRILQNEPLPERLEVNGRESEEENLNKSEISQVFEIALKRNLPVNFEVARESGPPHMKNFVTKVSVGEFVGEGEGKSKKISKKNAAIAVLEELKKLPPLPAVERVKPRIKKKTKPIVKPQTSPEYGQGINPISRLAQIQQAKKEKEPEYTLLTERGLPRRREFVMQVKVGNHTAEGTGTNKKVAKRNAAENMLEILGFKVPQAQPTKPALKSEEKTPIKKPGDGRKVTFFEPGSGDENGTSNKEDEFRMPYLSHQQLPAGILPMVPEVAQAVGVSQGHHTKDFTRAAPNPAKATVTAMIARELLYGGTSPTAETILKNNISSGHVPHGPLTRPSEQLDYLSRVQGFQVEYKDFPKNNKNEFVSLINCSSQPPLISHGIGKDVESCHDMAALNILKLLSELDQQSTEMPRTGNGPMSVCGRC

With “hSTAU1^55-HA3 (from UniProt O95793-2 1-496) (natural protein)” the level of co-immunoprecipitation as percent of that with WT or Δ(C-Term) [1] was 10%.

“hSTAU1^55(R)Δ(SSM-‘RBD’5)-FLAG (domain or fragment)” was tested, and the level of co-immunoprecipitation as percent of that of WT or Δ(C-Term) (hSTAU1^55-HA3 (human)) was 10%.

B1: hSTAU1-‘RBD’2-RBD3 (amino acids 43–173) (domain or fragment)
chain: PLLYQVELSVGGQQFNGKGKTRQAAKHDAAAKALRILQNEPLPERLEVNGRESEEENLNKSEISQVFEIALKRNLPVNFEVARESGPPHMKNFVTKVSVGEFVGEGEGKSKKISKKNAAIAVLEELKKLPP
B1 was tested, and the “stoichiometry N” value (SEC) was 2.

B2: hSTAU1 SSM-‘RBD’5 (hSTAU1 amino acids 367–476) (domain or fragment)
chain: KATVTAMIARELLYGGTSPTAETILKNNISSGHVPHGPLTRPSEQLDYLSRVQGFQVEYKDFPKNNKNEFVSLINCSSQPPLISHGIGKDVESCHDMAALNILKLLSELD
In the case of B2, the “stoichiometry N” value (SEC) is reported as 2 and the Kd (AUC) is reported as 79 ± 9 µM.

B3: cellular hUPF1 (natural protein)
chain: MSVEAYGPSSQTLTFLDTEEAELLGADTQGSEFEFTDFTLPSQTQTPPGGPGGPGGGGAGGPGGAGAGAAAGQLDAQVGPEGILQNGAVDDSVAKTSQLLAELNFEEDEEDTYYTKDLPIHACSYCGIHDPACVVYCNTSKKWFCNGRGNTSGSHIVNHLVRAKCKEVTLHKDGPLGETVLECYNCGCRNVFLLGFIPAKADSVVVLLCRQPCASQSSLKDINWDSSQWQPLIQDRCFLSWLVKIPSEQEQLRARQITAQQINKLEELWKENPSATLEDLEKPGVDEEPQHVLLRYEDAYQYQNIFGPLVKLEADYDKKLKESQTQDNITVRWDLGLNKKRIAYFTLPKTDSGNEDLVIIWLRDMRLMQGDEICLRYKGDLAPLWKGIGHVIKVPDNYGDEIAIELRSSVGAPVEVTHNFQVDFVWKSTSFDRMQSALKTFAVDETSVSGYIYHKLLGHEVEDVIIKCQLPKRFTAQGLPDLNHSQVYAVKTVLQRPLSLIQGPPGTGKTVTSATIVYHLARQGNGPVLVCAPSNIAVDQLTEKIHQTGLKVVRLCAKSREAIDSPVSFLALHNQIRNMDSMPELQKLQQLKDETGELSSADEKRYRALKRTAERELLMNADVICCTCVGAGDPRLAKMQFRSILIDESTQATEPECMVPVVLGAKQLILVGDHCQLGPVVMCKKAAKAGLSQSLFERLVVLGIRPIRLQVQYRMHPALSAFPSNIFYEGSLQNGVTAADRVKKGFDFQWPQPDKPMFFYVTQGQEEIASSGTSYLNRTEAANVEKITTKLLKAGAKPDQIGIITPYEGQRSYLVQYMQFSGSLHTKLYQEVEIASVDAFQGREKDFIILSCVRANEHQGIGFLNDPRRLNVALTRARYGVIIVGNPKALSKQPLWNHLLNYYKEQKVLVEGPLNNLRESLMQFSKPRKLVNTINPGARFMTTAMYDAREAIIPGSVYDRSSQGRPSSMYFQTHDQIGMISAGPSHVAAMNIPIPFNLVMPPMPPPGYFGQANGPAAGRGTPKGKTGRGGRQKNRFGLPGPSQTNLPNSQASQDVASQPFSQGALTQGYISMSQPSQMSQPGLSQPELSQDSYLGDEFKSQIDVALSQDSTYQGERAYQHGGVTGLSQY
With B3 the level of co-immunoprecipitation as percent of that with WT or Δ(C-Term) [1] was 10%.
